Measured values as given in patent publication US11278600B2, “Human alpha-galactosidase variants” (Codexis, Inc., priority 2014, dated 2022).

What was measured:
Type in all cases: biochemical
[1] = HTP-analysis of supernatants pretreated with acid (MUGal hydrolysis); conditions: challenge at pH 4.0; activity of the variant/activity of Rd3BB (SEQ ID NO: 13); yeast culture supernatant
Procedure, shortened: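 Yeast INVSc1 supernatant, GLA variants; acid challenge: McIlvaine pH 3.3-4.3, 37° C., 1-3 h. Assay: MUGal in McIlvaine pH 4.8 plus citrate pH 4.3, 37° C., 30-180 min, Na2CO3 stop, Ex 355/Em 448 nm.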

[2] = HTP-analysis of supernatants pretreated with bovine serum (MUGal hydrolysis); conditions: activity of the variant/activity of Rd3BB (SEQ ID NO: 13), yeast culture supernatant
Procedure, shortened: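 Yeast INVSc1 culture supernatants containing secreted GLA variants were mixed with bovine serum (20:80) and held 1 h at 37° C. Serum-treated samples then reacted with MUGal (4 mM stock) in citrate/McIlvaine buffer (pH 4.3/4.8) for 180 min at 37° C., were quenched with sodium carbonate, and read by fluorescence (Ex 355, Em 448 nm).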

[3] = HTP-analysis of yeast culture supernatants, no challenge (MUGal hydrolysis); conditions: activity of the variant/activity of Rd3BB (SEQ ID NO: 13), yeast culture supernatant
Procedure, shortened: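 GLA variants were expressed in INVSc1 yeast grown in SD-Ura broth with glucose at 30° C., and culture supernatants were collected after 66-84 h. Supernatant was mixed with McIlvaine buffer pH 4.8 and MUGal (2 mM stock) in 50 mM citrate, 200 mM KCl, pH 4.6, incubated at 37° C. for 30-180 minutes, then quenched with sodium carbonate.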

[4] = HTP-analysis of supernatants pretreated with base (MUGal hydrolysis); conditions: challenge at pH 8.2; activity of the variant/activity of Rd3BB (SEQ ID NO: 13); yeast culture supernatant
Procedure, shortened: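 Supernatants from INVSc1 yeast expressing GLA variants (SD-Ura, 66-84 h, 30° C) were mixed with McIlvaine buffer pH 7.0-8.2 or 200 mM sodium bicarbonate pH 9.1-9.7 and held 1-18 h at 37° C. Residual activity was then measured on MUGal at pH 4.8/4.3, 37° C, 30-180 min, by fluorescence (Ex 355/Em 448 nm).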

Row | Molecule | Relative Activity of GLA Variants After Challenge at pH 4.0 [1] | Relative Activity of GLA Variants After Challenge with Serum [2] | Relative Activity of GLA Variants After No Challenge (NC) [3] | Relative Activity of GLA Variants After Challenge at pH 8.2 [4]
1 | 334 (protein, Synthetic Polypeptide sequence of Variant No. 334 of mature Human GLA) LDNGLARTPTMGWLHWERFMCNLDCQEEPDSCISEKLFMEMAERMVSEGWKDAGYEYLCIDDCWMAPQRDSEGRLQADPQRFPHGIRQLANYVHSKGLKLGIYADVGNKTCAGFPGSFGYYDIDAQTFADWGVDLLKFDGCYCDSLENLADGYKHMSLALNRTGRSIVYSCEWPLYMWPFQKPNYTEIRQYCNHWRNFADIDDSWASIKSILDWTSFNQERIVDVAGPGGWNDPDMLVIGNFGLSWDQQVTQMALWAIMAAPLFMSNDLRHISPQAKALLQDKDVIAINQDPLGKQGYQLRQGDNFEVWERPLSGDAWAVAIINRQEIGGPRSYTIAVASLGKGVACNPGCFITQLLPVKRQLGFYNWSSRLKSHINPTGTVLLQLENTMQMSLKDLL | ++ (++ = >1.5 to 2.5 relative activity over Rd3BB (SEQ ID NO: 13)) | ++ (++ = >1.5 to 2.5 relative activity over Rd3BB (SEQ ID NO: 13)) | + (+ = 0.5 to 1.5 relative activity over Rd3BB (SEQ ID NO: 13)) | +++ (+++ = >2.5 relative activity over Rd3BB (SEQ ID NO: 13))
2 | 337 (protein, Synthetic Polypeptide sequence of Variant No. 337 of mature Human GLA) LDNGLARTPTMGWLHWERFMCNLDCQEEPDSCISEKLFMEMAERMVSEGWKDAGYEYLCIDDCWMAPQRDSEGRLQADPQRFPHGIRQLANYVHSKGLKLGIYADVGNKTCAGFPGSFGYYDIDAQTFADWGVDLLKFDGCYCDSLENLADGYKHMSLALNRTGRSIVYSCEWPLYMWPFQKPNYTEIRQYCNHWRNFADIDDSWASIKSILDWTSFNQERIVDVAGPGGWNDPDMLVIGNFGLSWDQQVTQMALWAIMAAPLFMSNDLRHISPQAKALLQDKDVIAINQDPLGKQGYQLRKGDNFEVWERPLSGLAWAVAIINRQEIGGPRSYTIAVASLGDGVACNPACFITQLLPVKRKLGFYNWTSRLKSHINPTGTVLLQLENTMQMSLKDLL | ++ (++ = >1.5 to 2.5 relative activity over Rd3BB (SEQ ID NO: 13)) | ++ (++ = >1.5 to 2.5 relative activity over Rd3BB (SEQ ID NO: 13)) | + (+ = 0.5 to 1.5 relative activity over Rd3BB (SEQ ID NO: 13)) | ++ (++ = >1.5 to 2.5 relative activity over Rd3BB (SEQ ID NO: 13))
3 | 335 (protein, Synthetic Polypeptide sequence of Variant No. 335 of mature Human GLA) LDNGLARTPTMGWLHWERFMCNLDCQEEPDSCISEKLFMEMAERMVSEGWKDAGYEYLCIDDCWMAPQRDSEGRLQADPQRFPHGIRQLANYVHSKGLKLGIYADVGNKTCAGFPGSFGYYDIDAQTFADWGVDLLKFDGCYCDSLENLADGYKHMSLALNRTGRSIVYSCEWPLYMWPFQKPNYTEIRQYCNHWRNFADIDDSWASIKSILDWTSFNQERIVDVAGPGGWNDPDMLVIGNFGLSWDQQVTQMALWAIMAAPLFMSNDLRHISPQAKALLQDKDVIAINQDPLGKQGYQLRQGDNFEVWERPLSGDAWAVAIINRQEIGGPRSYTIAVASLGGGVACNPGCFITQLLPVKRQLGFYNWSSRLKSHINPTGTVLLQLENTMQMSLKDLL | +++ (+++ = >2.5 relative activity over Rd3BB (SEQ ID NO: 13)) | +++ (+++ = >2.5 relative activity over Rd3BB (SEQ ID NO: 13)) | ++ (++ = >1.5 to 2.5 relative activity over Rd3BB (SEQ ID NO: 13)) | +++ (+++ = >2.5 relative activity over Rd3BB (SEQ ID NO: 13))
4 | 336 (protein, Synthetic Polypeptide sequence of Variant No. 336 of mature Human GLA) LDNGLARTPTMGWLHWERFMCNLDCQEEPDSCISEKLFMEMAERMVSEGWKDAGYEYLCIDDCWMAPQRDSEGRLQADPQRFPHGIRQLANYVHSKGLKLGIYADVGNKTCAGFPGSFGYYDIDAQTFADWGVDLLKFDGCYCDSLENLADGYKHMSLALNRTGRSIVYSCEWPLYMWPFQKPNYTEIRQYCNHWRNFADIDDSWASIKSILDWTSFNQERIVDVAGPGGWNDPDMLVIGNFGLSWDQQVTQMALWAIMAAPLFMSNDLRHISPQAKALLQDKDVIAINQDPLGKQGYQLRKGDNFEVWERPLSGLAWAVAIINRQEIGGPRSYTIAVASLGKGVACNPGCFITQLLPVKRKLGFYNWSSRLKSHINPTGTVLLQLENTMQMSLKDLL | + (+ = 0.5 to 1.5 relative activity over Rd3BB (SEQ ID NO: 13)) | − (− = <0.5 relative activity to Rd3BB (SEQ ID NO: 13)) | + (+ = 0.5 to 1.5 relative activity over Rd3BB (SEQ ID NO: 13)) | + (+ = 0.5 to 1.5 relative activity over Rd3BB (SEQ ID NO: 13))
5 | 339 (protein, Synthetic Polypeptide sequence of Variant No. 339 of mature Human GLA) LDNGLARTPTMGWLHWERFMCNLDCQEEPDSCISEKLFMEMAERMVSEGWKDAGYEYLCIDDCWMAPQRDSEGRLQADPQRFPHGIRQLANYVHSIGLKLGIYADVGNKTCAGFPGSFGYYDIDAQTFADWGVDLLKFDGCYCDSLENLADGYKHMSLALNRTGRSIVYSCEWPLYMWPFQKPNYTEIRQYCNHWRNFADIDDSWASIKSILDWTSRNQERIVDVAGPGGWNDPDMLVIGNFGLSWDQQVTQMALWAIMAAPLFMSNDLRHISPQAKALLQDKDVIAINQDPLGKQGYQLRQGDNFEVWERPLSGLAWAVAIINRQEIGGPRSYTIAVASLGKGVACNPGCFITQLLPVKRQLGFYNWTSRLKSHINPTGTVLLQLENTMQMSLKDLL | + (+ = 0.5 to 1.5 relative activity over Rd3BB (SEQ ID NO: 13)) | + (+ = 0.5 to 1.5 relative activity over Rd3BB (SEQ ID NO: 13)) | + (+ = 0.5 to 1.5 relative activity over Rd3BB (SEQ ID NO: 13)) | ++ (++ = >1.5 to 2.5 relative activity over Rd3BB (SEQ ID NO: 13))
6 | 338 (protein, Synthetic Polypeptide sequence of Variant No. 338 of mature Human GLA) LDNGLARTPTMGWLHWERFMCNLDCQEEPDSCISEKLFMEMAERMVSEGWKDAGYEYLCIDDCWMAPQRDSEGRLQADPQRFPHGIRQLANYVHSIGLKLGIYADVGNKTCAGFPGSFGYYDIDAQTFADWGVDLLKFDGCYCDSLENLADGYKHMSLALNRTGRSIVYSCEWPLYMWPFQKPNYTEIRQYCNHWRNFADIDDSWASIKSILDWTSRNQERIVDVAGPGGWNDPDMLVIGNFGLSWDQQVTQMALWAIMAAPLFMSNDLRHISPQAKALLQDKDVIAINQDPLGKQGYQLRQGDNFEVWERPLSGLAWAVAIINRQEIGGPRSYTIAVASLGKGVACNPGCFITQLLPVKRQLGFYNWTSRLKSHINPTGTVLLQLENTMQMSLKDLL | +++ (+++ = >2.5 relative activity over Rd3BB (SEQ ID NO: 13)) | +++ (+++ = >2.5 relative activity over Rd3BB (SEQ ID NO: 13)) | ++ (++ = >1.5 to 2.5 relative activity over Rd3BB (SEQ ID NO: 13)) | +++ (+++ = >2.5 relative activity over Rd3BB (SEQ ID NO: 13))
7 | 340 (protein, Synthetic Polypeptide sequence of Variant No. 340 of mature Human GLA) LDNGLARTPTMGWLHWERFMCNLDCQEEPDSCISEKLFMEMAERMVSEGWKDAGYEYLCIDDCWMAPQRDSEGRLQADPQRFPHGIRQLANYVHSIGLKLGIYADVGNKTCAGFPGSFGYYDIDAQTFADWGVDLLKFDGCYCDSLENLADGYKHMSLALNRTGRSIVYSCEWPLYMWPFQKPNYTEIRQYCNHWRNFADIDDSWASIKSILDWTSRNQERIVDVAGPGGWNDPDMLVIGNFGLSWDQQVTQMALWAIMAAPLFMSNDLRHISPQAKALLQDKDVIAINQDPLGKQGYQLRQGDNFEVWERPLSGLAWAVAIINRQEIGGPRSYTIAVASLGKGVACNPGCFITQLLPVKRQLGFYNWSSRLKSHINPTGTVLLQLENTMQMSLKDLL | + (+ = 0.5 to 1.5 relative activity over Rd3BB (SEQ ID NO: 13)) | + (+ = 0.5 to 1.5 relative activity over Rd3BB (SEQ ID NO: 13)) | + (+ = 0.5 to 1.5 relative activity over Rd3BB (SEQ ID NO: 13)) | + (+ = 0.5 to 1.5 relative activity over Rd3BB (SEQ ID NO: 13))
